Assay results published in patent US20260216242A1, “ALPP-SPECIFIC VARIANT ANTIGEN BINDING MOLECULES” (ALMAC DISCOVERY LIMITED, priority 2022, published 2026).

T1: ALPL expressed on the surface of CHO cells (CHO-ALPL) (Homo sapiens, UniProt P05186)
T1 construct: expressed in transfected cells
T1 sequence (P05186 18-501 limits assumed): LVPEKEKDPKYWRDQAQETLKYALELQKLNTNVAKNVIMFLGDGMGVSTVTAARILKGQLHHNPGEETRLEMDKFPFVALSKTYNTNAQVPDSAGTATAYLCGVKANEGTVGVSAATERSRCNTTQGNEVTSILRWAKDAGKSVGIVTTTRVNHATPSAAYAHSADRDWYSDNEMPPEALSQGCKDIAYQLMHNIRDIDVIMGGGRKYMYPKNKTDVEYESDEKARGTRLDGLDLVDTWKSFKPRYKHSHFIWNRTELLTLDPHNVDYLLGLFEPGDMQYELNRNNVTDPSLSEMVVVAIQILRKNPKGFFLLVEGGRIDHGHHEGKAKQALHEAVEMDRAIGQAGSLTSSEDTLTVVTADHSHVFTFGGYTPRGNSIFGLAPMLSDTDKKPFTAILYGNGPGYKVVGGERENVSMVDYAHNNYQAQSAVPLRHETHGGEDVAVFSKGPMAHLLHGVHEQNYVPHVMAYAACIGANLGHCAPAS

T2: ALPI expressed on the surface of CHO cells (CHO-ALPI) (Homo sapiens, UniProt P09923)
T2 construct: expressed in transfected cells
T2 sequence (P09923 20-503 limits assumed): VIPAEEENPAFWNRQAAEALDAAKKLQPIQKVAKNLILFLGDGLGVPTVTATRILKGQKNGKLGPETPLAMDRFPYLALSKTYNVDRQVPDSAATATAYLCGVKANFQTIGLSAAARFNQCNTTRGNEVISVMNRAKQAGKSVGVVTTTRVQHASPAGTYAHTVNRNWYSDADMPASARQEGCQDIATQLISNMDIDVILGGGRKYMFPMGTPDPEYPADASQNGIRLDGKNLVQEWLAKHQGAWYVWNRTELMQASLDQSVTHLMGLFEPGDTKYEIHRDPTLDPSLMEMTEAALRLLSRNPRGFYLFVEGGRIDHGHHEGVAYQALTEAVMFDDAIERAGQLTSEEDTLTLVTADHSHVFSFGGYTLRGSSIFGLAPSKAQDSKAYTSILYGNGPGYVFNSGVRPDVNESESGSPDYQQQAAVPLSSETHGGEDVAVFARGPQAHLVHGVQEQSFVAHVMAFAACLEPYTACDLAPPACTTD


Legend:
[1] = molecular target: T1, ALPL expressed on the surface of CHO cells (CHO-ALPL); assay: Cell-surface binding by flow cytometry, CHO-ALPL; settings: VHH His proteins
Protocol: (§1) C-terminal His tagged VHH proteins were assessed for ALPP, ALPPL2, ALPI and ALPL cell-surface binding by flow cytometry. Binders encompassing different epitope bins were screened on CHO cells stably expressing ALPP, ALPPL2, ALPI or ALPL. High levels of cell-surface proteins expression were confirmed for each of the cell-lines by flow cytometry.
(§2) Cell surface binding of test agents to hALPP isoforms was characterized in four CHO-ALPP isoform stably transfected cell lines (CHO-ALPP, CHO-ALPPL2, CHO-ALPI and CHO-ALPL) and the resulting KDapp values determined. Adherent cells were detached from tissue culture flasks by incubating with 0.1% EDTA/PBS solution at 37° C. for ~10 minutes or until cells detached easily. Cells were re-suspended in ice-cold PBS/2% FCS in 15 ml tubes and centrifuged at 1700 rpm for 5 mins at 4° C. Supernatant was removed and the cell pellet re-suspended in PBS/2% FCS. A cell count was performed using a Chemometec Nucleocounter NC-202 and 2.5×10^5 cells were aliquoted per test sample into a 96 well plate. Cells were incubated with 100 μl of test agents at a range of concentrations, plus controls for 1 hr on ice. The sample plate was centrifuged at 1700 rpm for 5 mins at 4° C. The supernatant was removed, and a wash performed by re-suspending the cell pellets in 0.25 mL of ice-cold PBS/2% FCS using a multichannel pipette. Samples were again centrifuged at 1700 rpm for 5 min at 4° C. Supernatant was removed and two further washes performed as described. After the final wash and centrifugation step, excess liquid was removed by blotting the plate on tissue paper. Binding of VHH (His6 tagged) agents was determined by adding 100 μl of anti-x6His tag Ab (Abcam) per cell pellet sample as appropriate and incubating on ice for 30 mins. Wash steps were performed as described previously. Fitc-anti-mouse antibody (ThermoFisher) was used to detect binding of the VHH (His6 tagged) agents by incubating with the appropriate samples for 30 min on ice in the dark. Wash steps were performed as described previously. All cell pellets were finally re-suspended in […] of ice-cold PBS/2% FCS and left on ice in the dark prior to analysis on a Merck-Millipore Guava EasyCyte HT or Thermo Fisher Attune N×T flow cytometer.
(§3) VHH-hFc proteins were assessed for human ALPP, ALPPL2, ALPI and ALPL cell-surface binding by flow cytometry. Binders were screened on CHO cells stably expressing human ALPP, ALPPL2, ALPI or ALPL.
(§4) Cell surface binding of test agents to hALPP isoforms was characterized in four CHO-ALPP isoform transfectant cell lines (CHO-ALPP, CHO-ALPPL2, CHO-ALPI and CHO-ALPL) and the resulting KDapp values determined. Adherent cells were detached from tissue culture flasks by incubating with 0.1% EDTA/PBS solution at 37° C. for ~10 minutes or until cells detached easily. Cells were re-suspended in ice-cold PBS/2% FCS in 15 ml tubes and centrifuged at 1700 rpm for 5 mins at 4° C. Supernatant was removed and the cell pellet re-suspended in PBS/2% FCS. A cell count was performed using a Chemometec Nucleocounter NC-202 and 2.5×10^5 cells were aliquoted per test sample into a 96 well plate. Cells were incubated with 100 μl of test agents at a range of concentrations, plus controls for 1 hr on ice. The sample plate was centrifuged at 1700 rpm for 5 mins at 4° C. The supernatant was removed, and a wash performed by re-suspending the cell pellets in 0.25 mL of ice-cold PBS/2% FCS using a multichannel pipette. Samples were again centrifuged at 1700 rpm for 5 min at 4° C. Supernatant was removed and two further washes performed as described. After the final wash and centrifugation step, excess liquid was removed by blotting the plate on tissue paper. Binding of VHH-hFc agents was determined by adding 100 μl of Fitc-anti-human Ab (ThermoFisher) and incubating for 30 mins on ice in the dark. Wash steps were performed as described previously. […]

[2] = molecular target: T2, ALPI expressed on the surface of CHO cells (CHO-ALPI); assay: Cell-surface binding by flow cytometry, CHO-ALPI; settings: for KDapp CHO-ALPI: VHH His proteins, up to 350 nM; for KDapp CHO-ALPI / binding to ALPI on CHO cells (in words): flow cytometry; for ALPI MFI as % of the ALPP MFI: VHH His at 350 nM; for binding to ALPI on CHO cells (in words): VHH proteins
Protocol: as §1, §2, §3, §4

| Molecule | KDapp CHO-ALPL [1] | KDapp CHO-ALPI [2] | ALPI MFI as % of the ALPP MFI [2] | binding to ALPI on CHO cells (in words) [2] |
| --- | --- | --- | --- | --- |
| D10: ALPP targeting VHH domain, SEQ ID NO: 28 (protein) VHH: QVQLVESGGGLVQPGGSLRLSCAASGSIFSVNTMGWYRQAPGKQRDLVAVATSGGTIHYADSVKGRFTISRDNAKNTVYLQMNSLKPEDTAVYYCNLVVPYGMIAGDHDYWGQGTKVTVSS | No binding | No binding |  |  |
| C07: ALPP/ALPPL2 targeting VHH domain, SEQ ID NO: 25 (protein) VHH: QVQLVESGGGLVQAGESLRLACAASGTIFSGNAVGWYRQAPEKQREWVSSITDYGDTDYAEAVKGRFTISRDNAKNTVYLQMNSLKPEDTAVYYCYVYQRGESEEYWGQGTQVTVSS | No binding | No binding |  |  |
| F08: ALPP/ALPPL2 targeting VHH domain, SEQ ID NO: 35 (protein) VHH: QVQLVESGGGSVQAGGSLRLSCAASGPSLSNYAMGWFRQAPGKEREFVAGISWGGGRTSYTDSVKGRFTISRDNAKNTVYLQMNNLKPEDTGVYYCAGRYGRGRNVEYEYDYWGQGTQVTVSS | No binding | Minimal | 1.3% | minimal binding |
| B01: ALPP/ALPPL2 targeting VHH domain, SEQ ID NO: 20 (protein) VHH: QVQLVESGGGLVQAGGSLRLSCEVTRSPMPIDTMAWYRQAPGRQRELVAIISRSGSTNYADSVKGRFTISRNDTKSTMYKSTMYLKMNTLELEDTGVYYCNAVGLWNGAEYWGQGTQVTVSS | No binding | No binding |  |  |
| A06: ALPP/ALPPL2 targeting VHH domain, SEQ ID NO: 17; tested C-terminally His-tagged (protein, C-terminal His tag, tested C-terminally His-tagged) VHH: QVHLVESGGGLVQAGGSLRLSCAASGRTFLSMGWFRQAPGKEREFVAAISWTGGSTGYADSVKGRFTISRESDKETMYLQMNSLKPEDTAVYYCAARGDVYYGGDDATRYKYWGQGTQVTVSS | No binding | No binding |  |  |
| A05: ALPP/ALPPL2 targeting VHH domain, SEQ ID NO: 16; tested C-terminally His-tagged (protein, C-terminal His tag, tested C-terminally His-tagged) VHH: QVQLVESGGGLVQAGASLTLSCAASGFTFNTRSIVWFRQAPGKEREAVSCISKVAGSTYYGDSVQGRFSSSTDNAKNTVSLQMNSLKPEDTAVYTCAASFAPNCYGWSVAANMEYWGEGTMVTVSS | No binding | No binding |  |  |
| E06: ALPP/ALPPL2 targeting VHH domain, SEQ ID NO: 30 (protein) VHH: QVHLVESGGGLVQAGGSLRLSCAASRRSFSEYAMGWFRQAPGKEREFVAAIGWSGVIEYADSVKGRFTISRDNAKDTVYLQMNSLKPEDTAVYYCAAGLGIRVVSQTPAYWGQGTQVTVSS | No binding | No binding |  |  |
| E10: ALPP/ALPPL2 targeting VHH domain, SEQ ID NO: 31 (protein) VHH: QVQLVESGGGLVQAGGSLRLSCAVSGRALSDYNIGWFRQAPGKEREFVARKTWDGSSTRYDDSVKGRFTVSIEDAKNTAYLQMSSLKTEDTAVYYCAAGRYSRARGWEYDYWGQGTQVTVSS | No binding | No binding |  |  |
| F05: ALPP/ALPPL2 targeting VHH domain, SEQ ID NO: 34 (protein) VHH: QVQLVESGGGLVQAGGSLRLSCAASGRAFGDYNIGWFRQAPGKEREFVARRTWDGSSTRYDDSVKGRFTVSIDNAKNTAYLQMNSLKTEDTAVYYCAAGRYSRVRGWEYDYWGQGTQVTVSS | No binding | No binding |  |  |
| D04: ALPP/ALPPL2 targeting VHH domain, SEQ ID NO: 26 (protein) VHH: QVQLVESGGGLVQPGGSLRLSCAASESTFSINVMGWYRQAPGKQRELVATITSGDITNYADSVKGRFTISRDNAENTVYLRTNSLKPEDTAVYYCNARGEYHSGNEYDYWGQGTQVTVSS | No binding | Minimal | 9.5% | weak binding |
